Consider three variants from FireProtDB (doi:10.1074/jbc.m112.408906).

First the molecules themselves.
B1: Myocilin, Q99972 (parent)
chain: MRFFCARCCSFGPEMPAVQLLLLACLVWDVGARTAQLRKANDQSGRCQYTFSVASPNESSCPEQSQAMSVIHNLQRDSSTQRLDLEATKARLSSLESLLHQLTLDQAARPQETQEGLQRELGTLRRERDQLETQTRELETAYSNLLRDKSVLEEEKKRLRQENENLARRLESSSQEVARLRRGQCPQTRDTARAVPPGSREVSTWNLDTLAFQELKSELTEVPASRILKESPSGYLRSGEGDTGCGELVWVGEPLTLRTAETITGKYGVWMRDPKPTYPYTQETTWRIDTVGTDVRQVFEYDLISQFMQGYPSKVHILPRPLESTGAVVYSGSLYFQGAESRTVIRYELNTETVKAEKEIPGAGYHGQFPYSWGGYTDIDLAVDEAGLWVIYSTDEAKGAIVLSKLNPENLELEQTWETNIRKQSVANAFIICGTLYTVSSYTSADATVNFAYDTGTGISKTLTIPFKNRYKYSSMIDYNPLEKKLFAWDNLNMVTYDIKLSKM

This series covers variants of B1. The following applies: Homo sapiens, pH 6, Thermal, CD, Sodium acetate 10mM, reversible: no, structure 4WXQ, whole UniProt chain shown.

Usually Tm stands for the temperature at which the thermal transition is half complete. On to MRFFCARCCSFGPEMPAVQLLLLACLVWDVGARTAQLRKANDQSGRCQYTFSVASPNESSCPEQSQAMSVIHNLQRDSSTQRLDLEATKARLSSLESLLHQLTLDQAARPQETQEGLQRELGTLRRERDQLETQTRELETAYSNLLRDKSVLEEEKKRLRQENENLARRLESSSQEVARLRRGQCPQTRDTARAVPPGSREVSTWNLDTLAFQELKSELTEVPASRILKESPSGYLRSGEGDTGCGELVWVGEPLTLRTAETITGKYGVWMRDPKPTYPYTQETTWRIDTVGTDVRQVFEYDLISQFMQGYPSKVHILPRPLESTGAVVYSGSLYFQGAESRTVIRYELNTETVKAEKEIPGAGYHGQFPYSWGGYMDIDLAVDEAGLWVIYSTDEAKGAIVLSKLNPENLELEQTWETNIRKQSVANAFIICGTLYTVSSYTSADATVNFAYDTGTGISKTLTIPFKNRYKYSSMIDYNPLEKKLFAWDNLNMVTYDIKLSKM [T377M], for which the Tm reads like this: (CaCl2 1mM) 44.3 °C; (CaCl2 10mM) 50.6 °C. In addition, the “change of melting temperature, mutant - wild type (higher = more stable)” value (shortened to “change of melting temperature, mutant”) runs as follows: (CaCl2 1mM) -8.7 °C; (CaCl2 10mM) -9 °C.

For the variant MRFFCARCCSFGPEMPAVQLLLLACLVWDVGARTAQLRKANDQSGRCQYTFSVASPNESSCPEQSQAMSVIHNLQRDSSTQRLDLEATKARLSSLESLLHQLTLDQAARPQETQEGLQRELGTLRRERDQLETQTRELETAYSNLLRDKSVLEEEKKRLRQENENLARRLESSSQEVARLRRGQCPQTRDTARAVPPGSREVSTWNLDTLAFQELKSELTEVPASRILKESPSGYLRSGEGDTGCGELVWVGEPLTLRTAETITGKYGVWMRDPKPTYPYTQETTWRIDTVGTDVRQVFEYDLISQFMQGYPSKVHILPRPLESTGAVVYSGSLYFQGAESRTVIRYELNTETVKAEKEIPGAGYHGQFPYSWGGYTDIALAVDEAGLWVIYSTDEAKGAIVLSKLNPENLELEQTWETNIRKQSVANAFIICGTLYTVSSYTSADATVNFAYDTGTGISKTLTIPFKNRYKYSSMIDYNPLEKKLFAWDNLNMVTYDIKLSKM [D380A], the Tm was found to be 46.6 °C (CaCl2 1mM) and 45.1 °C (CaCl2 10mM). The “change of melting temperature, mutant” value is -6.4 °C (CaCl2 1mM) and -14.5 °C (CaCl2 10mM).

As for MRFFCARCCSFGPEMPAVQLLLLACLVWDVGARTAQLRKANDQSGRCQYTFSVASPNESSCPEQSQAMSVIHNLQRDSSTQRLDLEATKARLSSLESLLHQLTLDQAARPQETQEGLQRELGTLRRERDQLETQTRELETAYSNLLRDKSVLEEEKKRLRQENENLARRLESSSQEVARLRRGQCPQTRDTARAVPPGSREVSTWNLDTLAFQELKSELTEVPASRILKESPSGYLRSGEGDTGCGELVWVGEPLTLRTAETITGKYGVWMRDPKPTYPYTQETTWRIDTVGTDVRQVFEYDLISQFMQGYPSKVHILPRPLESTGAVVYSGSLYFQGAESRTVIRYELNTETVKAEKEIPGAGYHRQFPYSWGGYTDIDLAVDEAGLWVIYSTDEAKGAIVLSKLNPENLELEQTWETNIRKQSVANAFIICGTLYTVSSYTSADATVNFAYDTGTGISKTLTIPFKNRYKYSSMIDYNPLEKKLFAWDNLNMVTYDIKLSKM [G367R], for the setting “CaCl2 1mM”, the Tm was found to be 42.7 °C and the “change of melting temperature, mutant” value was -10.3 °C. Besides, under “CaCl2 10mM”, the midpoint of thermal melting (Tm) came out at 50.9 °C and the “change of melting temperature, mutant” value is -8.7 °C.
